In patent US20060104974A1:

How the values were obtained:
[1] = molecular target: Hu-CD147IgG2 fusion protein (human); assay: BIAcore, surface Hu rCD147-IgG 791 RU
CD147 on cells (human) = CD147 on cells (human) (UniProt P35613); assay: two-colour FACS of activated lymphocytes, CBL against CD25
Chain of CD147 on cells (human) (P35613 other isoform, or with tags, fused parts or gaps limits assumed): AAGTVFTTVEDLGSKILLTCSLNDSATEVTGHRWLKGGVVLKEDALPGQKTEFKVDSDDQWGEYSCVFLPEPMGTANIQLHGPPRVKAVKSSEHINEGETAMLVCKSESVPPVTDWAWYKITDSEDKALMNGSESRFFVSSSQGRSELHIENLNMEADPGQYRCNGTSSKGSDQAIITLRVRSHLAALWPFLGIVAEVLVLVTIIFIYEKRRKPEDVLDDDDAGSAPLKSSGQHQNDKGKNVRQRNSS

Chain of ABX-CBL antibody (HC): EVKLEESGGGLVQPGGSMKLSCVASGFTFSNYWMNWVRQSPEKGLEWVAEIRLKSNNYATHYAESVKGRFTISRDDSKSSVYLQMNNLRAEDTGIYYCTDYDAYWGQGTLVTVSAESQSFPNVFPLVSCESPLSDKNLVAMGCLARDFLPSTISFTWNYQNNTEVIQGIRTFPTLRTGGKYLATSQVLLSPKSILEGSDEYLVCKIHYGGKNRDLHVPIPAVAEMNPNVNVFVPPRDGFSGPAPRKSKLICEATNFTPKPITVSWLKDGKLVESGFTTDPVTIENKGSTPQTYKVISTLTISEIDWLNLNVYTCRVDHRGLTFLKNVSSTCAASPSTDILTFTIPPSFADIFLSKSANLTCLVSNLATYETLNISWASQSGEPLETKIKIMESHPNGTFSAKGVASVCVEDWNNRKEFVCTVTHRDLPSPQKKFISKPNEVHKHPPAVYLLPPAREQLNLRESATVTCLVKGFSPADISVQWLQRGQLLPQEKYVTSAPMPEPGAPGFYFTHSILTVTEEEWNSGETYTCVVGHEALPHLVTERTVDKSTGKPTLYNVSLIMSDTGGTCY
Chain of ABX-CBL antibody (LC): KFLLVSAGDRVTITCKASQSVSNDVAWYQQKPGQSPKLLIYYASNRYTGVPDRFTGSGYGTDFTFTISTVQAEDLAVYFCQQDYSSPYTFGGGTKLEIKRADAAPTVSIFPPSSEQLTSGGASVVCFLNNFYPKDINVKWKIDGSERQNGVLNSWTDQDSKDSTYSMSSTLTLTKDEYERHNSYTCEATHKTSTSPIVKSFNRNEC

Ka [1]: 1.39e+09 M⁻¹ | Kd [1]: 0.518 nM | koff [1]: 0.000376 s⁻¹ | kon [1]: 725000 M⁻¹ s⁻¹ | % of cells in quadrant CBL negative / CD25 negative (CD147 on cells (human)): 29.6% | % of cells in quadrant CBL negative / CD25 positive (CD147 on cells (human)): 1.6% | % of cells in quadrant CBL positive / CD25 negative (CD147 on cells (human)): 18.9% | % of cells in quadrant CBL positive / CD25 positive (CD147 on cells (human)): 50%
Substance: ABX-CBL antibody
